Results published in publication PMC10643145, “Structure and activation of the RING E3 ubiquitin ligase TRIM72 on the membrane” (Nature Structural & Molecular Biology, 2023).
Positions count from the first letter of the chain named.

What was measured:
[1] = molecular target: the molecule itself; assay: cross-linking; time-dependent cross-linking of TRIM72 WT purified from mammalian cells (copurified with endogenous microvesicles)
[2] = molecular target: the molecule itself; assay: SEC-MALS; Superdex 200 Increase 10/300 GL; 50 mM Tris-HCl pH 8.0, 300 mM NaCl, 2 mM TCEP; TRIM72 WT at 11.2, 5.6 and 2.8 mg/ml; dimer in solution
[3] = molecular target: the molecule itself; assay: cryo-EM structure; cryo-ET and subtomogram averaging of proteoliposomes (80 mol% DOPS, 20 mol% cholesterol); 50 mM Tris-HCl pH 8.0, 150 mM NaCl, 1 mM TCEP; higher-order assembly of dimers on the lipid bilayer

B1: human TRIM72 wild type, 2× Strep-tagged (natural protein, UniProt Q6ZMU5 1-477, looked up)
chain: MSAAPGLLHQELSCPLCLQLFDAPVTAECGHSFCRACLGRVAGEPAADGTVLCPCCQAPTRPQALSTNLQLARLVEGLAQVPQGHCEEHLDPLSIYCEQDRALVCGVCASLGSHRGHRLLPAAEAHARLKTQLPQQKLQLQEACMRKEKSVAVLEHQLVEVEETVRQFRGAVGEQLGKMRVFLAALEGSLDREAERVRGEAGVALRRELGSLNSYLEQLRQMEKVLEEVADKPQTEFLMKYCLVTSRLQKILAESPPPARLDIQLPIISDDFKFQVWRKMFRALMPALEELTFDPSSAHPSLVVSSSGRRVECSEQKAPPAGEDPRQFDKAVAVVAHQQLSEGEHYWEVDVGDKPRWALGVIAAEAPRRGRLHAVPSQGLWLLGLREGKILEAHVEAKEPRALRSPERRPTRIGLYLSFGDGVLSFYDASDADALVPLFAFHERLPRPVYPFFDVCWHDKGKNAQPLLLVGPEGAEA
notes: TRIM72 (MG53), human, wild type, full length; Copurified with endogenous microvesicles of about 100 nm; also called TRIM72 WT purified from mammalian cells; mammalian-expressed human TRIM72; source: HEK293T, transfected (polyethyleneimine), purified (StrepTrap HP, SEC on Superose 6 Increase)
B1: binds [1].

B2: mouse TRIM72 wild type (tripartite motif-containing protein 72) (natural protein, UniProt Q1XH17 1-477, looked up)
chain: MSAAPGLLRQELSCPLCLQLFDAPVTAECGHSFCRACLIRVAGEPAADGTVACPCCQAPTRPQALSTNLQLSRLVEGLAQVPQGHCEEHLDPLSIYCEQDRTLVCGVCASLGSHRGHRLLPAAEAQARLKTQLPQQKMQLQEACMRKEKTVAVLEHQLVEVEETVRQFRGAVGEQLGKMRMFLAALESSLDREAERVRGDAGVALRRELSSLNSYLEQLRQMEKVLEEVADKPQTEFLMKFCLVTSRLQKILSESPPPARLDIQLPVISDDFKFQVWKKMFRALMPALEELTFDPSSAHPSLVVSSSGRRVECSDQKAPPAGEDTRQFDKAVAVVAQQLLSQGEHYWEVEVGDKPRWALGVMAADASRRGRLHAVPSQGLWLLGLRDGKILEAHVEAKEPRALRTPERPPARIGLYLSFADGVLAFYDASNPDVLTPIFSFHERLPGPVYPIFDVCWHDKGKNAQPLLLVGPEQEQA
notes: TRIM72 (MG53), Mus musculus, wild type, full length; Tight dimer in solution by SEC-MALS; higher-order assembly only on PS liposomes; also called TRIM72 WT; MG53; source: E. coli BL21(DE3), purified (AC, IEX, SEC); not shown: His6, N-terminal, cleaved; MBP, N-terminal, cleaved
B2 was tested, and the “stoichiometry N” value [2] was 2.

B3: mouse TRIM72^M138R (natural protein, UniProt Q1XH17 1-477, looked up)
chain: B2 chain with M138R
notes: TRIM72, Mus musculus, mutation on the outer side of the H1 helix of the coiled-coil domain; source: E. coli BL21(DE3), purified (AC, IEX, SEC); not shown: His6, N-terminal, cleaved; MBP, N-terminal, cleaved
B3: binds [3].
